Target: canine LILRB3 (ENSCAFG00000028453) on normal MDCK cells (dog)
Assay: cell-based or functional assay

Chain of canine LILRB3 (ENSCAFG00000028453) on normal MDCK cells (dog) (chain, as listed by the source limits assumed, form in doubt): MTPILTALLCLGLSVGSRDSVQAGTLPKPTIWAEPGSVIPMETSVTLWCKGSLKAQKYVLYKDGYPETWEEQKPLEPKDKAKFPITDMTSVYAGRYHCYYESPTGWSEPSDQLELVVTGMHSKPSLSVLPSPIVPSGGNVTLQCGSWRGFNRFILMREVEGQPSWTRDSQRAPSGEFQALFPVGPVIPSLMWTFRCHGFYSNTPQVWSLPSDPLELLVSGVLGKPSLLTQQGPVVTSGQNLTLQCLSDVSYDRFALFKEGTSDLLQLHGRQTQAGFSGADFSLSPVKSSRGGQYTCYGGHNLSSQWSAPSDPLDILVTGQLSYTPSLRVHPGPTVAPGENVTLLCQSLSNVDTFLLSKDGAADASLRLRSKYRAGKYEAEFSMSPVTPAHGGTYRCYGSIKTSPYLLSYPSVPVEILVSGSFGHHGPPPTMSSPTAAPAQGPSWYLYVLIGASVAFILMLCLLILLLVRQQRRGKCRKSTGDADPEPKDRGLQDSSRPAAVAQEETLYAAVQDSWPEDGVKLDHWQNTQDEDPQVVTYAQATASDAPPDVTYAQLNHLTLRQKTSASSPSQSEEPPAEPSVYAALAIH

residual rate of SCRB^KD (Scribble knockdown) MDCK cells in mixed culture with normal MDCK cells, 24 hr: 20%
Substance: recombinant protein DLA88-α3 (from UniProt P18466 207-299) (ligand)
